Test results published in patent WO2004046187A2 (dated 2004).

How the values were obtained:
[1] = molecular target: T1, Recombinant oncogenic HRAS (G12V; residues 1 - 166) loaded with GppNp (human, UniProt P01112 1-166); experiment: SPR, BIAcore 2000; HRASG12V-GppNp immobilised on CM5 chip (about 1500 RU), purified scFv injected
T1 construct: range 1-166; this form was used as antigen throughout the in vitro assays; also called HRASG12V-GppNp; RASG12V-GppNp

[2] = molecular target: T2, LexA DBD (made from the empty pBTM116 vector) (UniProt P0A7C2 1-202); experiment: yeast two-hybrid (His-independent growth, β-gal activation)
T2 construct: domain: LexA DBD; Control bait in yeast
T2 sequence: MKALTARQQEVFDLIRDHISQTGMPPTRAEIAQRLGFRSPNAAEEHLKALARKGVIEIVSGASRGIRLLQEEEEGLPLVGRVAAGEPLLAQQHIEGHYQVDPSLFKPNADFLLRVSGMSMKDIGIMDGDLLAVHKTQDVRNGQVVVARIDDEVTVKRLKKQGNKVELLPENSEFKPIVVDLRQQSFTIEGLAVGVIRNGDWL

[3] = molecular target: T3, non-relevant antigen (β-galactosidase) bait in yeast (UniProt P00722 2-1024 = β-galactosidase); experiment: as above
T3 construct: Used as non-relevant bait in the yeast two-hybrid test
T3 sequence (P00722 2-1024 limits assumed): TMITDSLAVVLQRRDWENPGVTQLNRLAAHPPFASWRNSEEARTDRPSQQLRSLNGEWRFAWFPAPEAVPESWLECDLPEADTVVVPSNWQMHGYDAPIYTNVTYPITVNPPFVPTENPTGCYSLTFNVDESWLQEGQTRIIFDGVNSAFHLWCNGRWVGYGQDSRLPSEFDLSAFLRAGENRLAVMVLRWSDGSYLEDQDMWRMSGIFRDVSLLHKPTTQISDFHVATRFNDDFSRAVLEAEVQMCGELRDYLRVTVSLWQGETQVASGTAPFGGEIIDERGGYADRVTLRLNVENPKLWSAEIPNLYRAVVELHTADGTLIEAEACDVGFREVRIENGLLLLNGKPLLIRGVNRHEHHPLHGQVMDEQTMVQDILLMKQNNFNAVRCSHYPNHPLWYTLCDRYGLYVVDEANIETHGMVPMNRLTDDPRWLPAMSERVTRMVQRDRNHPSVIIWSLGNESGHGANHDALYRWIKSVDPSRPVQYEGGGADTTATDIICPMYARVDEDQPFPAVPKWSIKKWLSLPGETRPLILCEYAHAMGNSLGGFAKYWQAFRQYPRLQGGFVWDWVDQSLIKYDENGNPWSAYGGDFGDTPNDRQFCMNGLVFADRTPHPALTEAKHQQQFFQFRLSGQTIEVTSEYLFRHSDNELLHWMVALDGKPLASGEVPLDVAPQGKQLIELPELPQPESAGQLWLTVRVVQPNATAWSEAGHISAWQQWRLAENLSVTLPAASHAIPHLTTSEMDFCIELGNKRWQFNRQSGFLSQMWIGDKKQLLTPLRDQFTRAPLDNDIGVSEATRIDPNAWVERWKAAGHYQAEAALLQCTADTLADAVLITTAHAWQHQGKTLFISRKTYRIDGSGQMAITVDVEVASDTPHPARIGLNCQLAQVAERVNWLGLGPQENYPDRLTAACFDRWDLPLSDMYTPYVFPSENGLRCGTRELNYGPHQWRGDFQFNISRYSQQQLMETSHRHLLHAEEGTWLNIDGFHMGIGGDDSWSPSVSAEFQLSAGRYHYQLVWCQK

B1: anti-RAS scFvI21, purified from bacterial periplasm (pHEN2) (scFv)
scFv: EVQLLESGGGLVQPGGSLRLSCAASGFTFSSYAMSWVRQAPGKGLEWVSTISYGGSNTNYADSVKARFTISRDNSKNTLYLQMNSLRAEDTAVYYCAKGNNAFDYWGQGTLVTVSSGGGGSGGGGSGGGGSTDIQMTQSPSSLSASVGDRVTITCRASQSISSYLNWYQQKPGKAPKLLIYNASALQSGVPSRFSGSGSGTDFTLTISSLQPEDFATYYCQQYTSTPRTFGQGTKVEIKR
notes: also called 121 (as the text prints it); ICAb 121; not shown: C-terminal His6-tag and myc-tag from pHEN2
Kd [1]: 2.16 µM

B2: scFvI21-VP16 activation domain fusion (scFv)
scFv: EVQLLESGGGLVQPGGSLRLSCAASGFTFSSYAMSWVRQAPGKGLEWVSTISYGGSNTNYADSVKARFTISRDNSKNTLYLQMNSLRAEDTAVYYCAKGNNAFDYWGQGTLVTVSSGGGGSGGGGSGGGGSTDIQMTQSPSSLSASVGDRVTITCRASQSISSYLNWYQQKPGKAPKLLIYNASALQSGVPSRFSGSGSGTDFTLTISSLQPEDFATYYCQQYTSTPRTFGQGTKVEIKR
notes: In the mammalian vector the scFv stands on the N-terminal side of VP16; the same id is used for the yeast pVP16 prey; also called 121; ICAb 121
binding result [2]: no binding | binding result [3]: no binding
